Laboratory results published in US20140220107A1.

Assays:
[1] = molecular target: HIV-1 Ba-L gp145 (HIV-1 Ba-L (subtype B)); experiment: gp160 antigen capture ELISA, 2F5 as capture antibody; media of transfected HEK293 cells, 48 h (negative control 0.135)
[2] = molecular target: HIV-1 subtype C C06838v1c48 gp160 (HIV-1 subtype C isolate C06838v1c48); experiment: as above
[3] = molecular target: HIV-1 subtype C C06838v1c48 gp160 DC (HIV-1 subtype C isolate C06838v1c48); experiment: as above
[4] = molecular target: HIV-1 subtype C C06980v0c22 gp160 (HIV-1 subtype C isolate C06980v0c22); experiment: as above
[5] = molecular target: HIV-1 subtype C C06980v0c22 gp160 DC (HIV-1 subtype C isolate C06980v0c22); experiment: as above
[6] = molecular target: HIV-1 subtype C C06980v1c3 gp160 (HIV-1 subtype C isolate C06980v1c3); experiment: as above
[7] = molecular target: HIV-1 subtype C C06980v1c3 gp160 DC (HIV-1 subtype C isolate C06980v1c3); experiment: as above
[8] = molecular target: HIV-1 subtype C C3728v2c6 gp160 (HIV-1 subtype C isolate C3728v2c6); experiment: as above
[9] = molecular target: HIV-1 subtype C C3728v2c6 gp160 DC (HIV-1 subtype C isolate C3728v2c6); experiment: as above
[10] = molecular target: HIV-1 Ba-L gp145 (HIV-1 Ba-L (subtype B)); experiment: gp160 antigen capture ELISA, 2F5 as capture antibody; cell lysate of transfected HEK293 cells, 48 h (negative control 0.150)
[11] = molecular target: HIV-1 subtype C C06838v1c48 gp160 (HIV-1 subtype C isolate C06838v1c48); experiment: as above
[12] = molecular target: HIV-1 subtype C C06838v1c48 gp160 DC (HIV-1 subtype C isolate C06838v1c48); experiment: as above
[13] = molecular target: HIV-1 subtype C C06980v0c22 gp160 (HIV-1 subtype C isolate C06980v0c22); experiment: as above
[14] = molecular target: HIV-1 subtype C C06980v0c22 gp160 DC (HIV-1 subtype C isolate C06980v0c22); experiment: as above
[15] = molecular target: HIV-1 subtype C C06980v1c3 gp160 (HIV-1 subtype C isolate C06980v1c3); experiment: as above
[16] = molecular target: HIV-1 subtype C C06980v1c3 gp160 DC (HIV-1 subtype C isolate C06980v1c3); experiment: as above
[17] = molecular target: HIV-1 subtype C C3728v2c6 gp160 (HIV-1 subtype C isolate C3728v2c6); experiment: as above
[18] = molecular target: HIV-1 subtype C C3728v2c6 gp160 DC (HIV-1 subtype C isolate C3728v2c6); experiment: as above
[19] = molecular target: HIV-1 Ba-L gp145 (HIV-1 Ba-L (subtype B)); experiment: gp160 antigen capture ELISA, 4E10 as capture antibody; media of transfected HEK293 cells, 48 h (negative control 0.123)
[20] = molecular target: HIV-1 subtype C C06838v1c48 gp160 (HIV-1 subtype C isolate C06838v1c48); experiment: as above
[21] = molecular target: HIV-1 subtype C C06838v1c48 gp160 DC (HIV-1 subtype C isolate C06838v1c48); experiment: as above
[22] = molecular target: HIV-1 subtype C C06980v0c22 gp160 (HIV-1 subtype C isolate C06980v0c22); experiment: as above
[23] = molecular target: HIV-1 subtype C C06980v0c22 gp160 DC (HIV-1 subtype C isolate C06980v0c22); experiment: as above
[24] = molecular target: HIV-1 subtype C C06980v1c3 gp160 (HIV-1 subtype C isolate C06980v1c3); experiment: as above
[25] = molecular target: HIV-1 subtype C C06980v1c3 gp160 DC (HIV-1 subtype C isolate C06980v1c3); experiment: as above
[26] = molecular target: HIV-1 subtype C C3728v2c6 gp160 (HIV-1 subtype C isolate C3728v2c6); experiment: as above
[27] = molecular target: HIV-1 subtype C C3728v2c6 gp160 DC (HIV-1 subtype C isolate C3728v2c6); experiment: as above
[28] = molecular target: HIV-1 Ba-L gp145 (HIV-1 Ba-L (subtype B)); experiment: gp160 antigen capture ELISA, 4E10 as capture antibody; cell lysate of transfected HEK293 cells, 48 h (negative control 0.156)
[29] = molecular target: HIV-1 subtype C C06838v1c48 gp160 (HIV-1 subtype C isolate C06838v1c48); experiment: as above
[30] = molecular target: HIV-1 subtype C C06838v1c48 gp160 DC (HIV-1 subtype C isolate C06838v1c48); experiment: as above
[31] = molecular target: HIV-1 subtype C C06980v0c22 gp160 (HIV-1 subtype C isolate C06980v0c22); experiment: as above
[32] = molecular target: HIV-1 subtype C C06980v0c22 gp160 DC (HIV-1 subtype C isolate C06980v0c22); experiment: as above
[33] = molecular target: HIV-1 subtype C C06980v1c3 gp160 (HIV-1 subtype C isolate C06980v1c3); experiment: as above
[34] = molecular target: HIV-1 subtype C C06980v1c3 gp160 DC (HIV-1 subtype C isolate C06980v1c3); experiment: as above
[35] = molecular target: HIV-1 subtype C C3728v2c6 gp160 (HIV-1 subtype C isolate C3728v2c6); experiment: as above
[36] = molecular target: HIV-1 subtype C C3728v2c6 gp160 DC (HIV-1 subtype C isolate C3728v2c6); experiment: as above

Substance: 2F5 human monoclonal antibody to the gp41 MPER
- OD 450 nm [1]: 2.27 OD 450 nm
- OD 450 nm [2]: 0.146 OD 450 nm
- OD 450 nm [3]: 0.155 OD 450 nm
- OD 450 nm [4]: 0.344 OD 450 nm
- OD 450 nm [5]: 0.298 OD 450 nm
- OD 450 nm [6]: 0.2 OD 450 nm
- OD 450 nm [7]: 0.179 OD 450 nm
- OD 450 nm [8]: 0.198 OD 450 nm
- OD 450 nm [9]: 0.219 OD 450 nm
- OD 450 nm [10]: 2.64 OD 450 nm
- OD 450 nm [11]: 0.53 OD 450 nm
- OD 450 nm [12]: 0.506 OD 450 nm
- OD 450 nm [13]: 1.46 OD 450 nm
- OD 450 nm [14]: 1.21 OD 450 nm
- OD 450 nm [15]: 0.399 OD 450 nm
- OD 450 nm [16]: 0.446 OD 450 nm
- OD 450 nm [17]: 0.781 OD 450 nm
- OD 450 nm [18]: 0.829 OD 450 nm

Substance: 4E10 human monoclonal antibody to the gp41 MPER
- OD 450 nm [19]: 2.42 OD 450 nm
- OD 450 nm [20]: 0.146 OD 450 nm
- OD 450 nm [21]: 0.162 OD 450 nm
- OD 450 nm [22]: 2.53 OD 450 nm
- OD 450 nm [23]: 2.61 OD 450 nm
- OD 450 nm [24]: 0.926 OD 450 nm
- OD 450 nm [25]: 1.1 OD 450 nm
- OD 450 nm [26]: 0.589 OD 450 nm
- OD 450 nm [27]: 0.681 OD 450 nm
- OD 450 nm [28]: 2.55 OD 450 nm
- OD 450 nm [29]: 2.65 OD 450 nm
- OD 450 nm [30]: 2.7 OD 450 nm
- OD 450 nm [31]: 2.74 OD 450 nm
- OD 450 nm [32]: 2.62 OD 450 nm
- OD 450 nm [33]: 2.72 OD 450 nm
- OD 450 nm [34]: 2.59 OD 450 nm
- OD 450 nm [35]: 2.78 OD 450 nm
- OD 450 nm [36]: 2.65 OD 450 nm
